From the nanobody polyreactivity screen of Harvey et al. (2022)

test: yeast display, Sf9 membrane polyspecificity reagent, FACS + sequencing; frameworks hold sequencing errors
Summary of the method: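 Galactose induction of a Saccharomyces cerevisiae BJ5465 synthetic nanobody display library ran 36–48 hours. The cells were then stained for 1 hour at 4 °C with 10% biotinylated, detergent-solubilized Sf9 membrane reagent, pulled down on streptavidin microbeads and FACS-sorted into low and high (top ~1%) gates on expression and reagent-binding fluorescence. Labels for polyreactivity follow the gate of origin.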

Row | Sequence | polyreactivity (PSR sort gate)
1 | QVQLVESGGGLVQAGGSLRLSCAASGSTSDINAMGWYRQAPGKERELVAAISSSGGRTYYADSVKGRFTISRDNAKNTVYLQMNSLKPEDTAVYYCAADTYTSAQHEKYDYWGQGTQVTVSS | low polyreactivity
2 | HVQLVESGGGLVQAGGSLRLNCAASGSTFKRNAMGWYRQATGKERELVAAISRSGGSTYYADSVKGRFTISRDNAKTTVYLQMNSLNPEDTAVYFCNALRGTASWRGYYWGQGTQVTVSS | high polyreactivity
3 | QVQLVESGGGLVQAGGRLRLICAASGSTFYYNALGWYRQAPGKERELVAGISRSGGSTYYADSVKGRFTISRDNAKNTVYLQMNSLKPEDTAVYYCAAKSYAYRWYDYWGQGTQVTVSS | high polyreactivity
4 | QVQLVESGGGIVQAGGSLRLSCAASGRSFDPYAMGWYRQAPGKERELVAAISRSGGSTYYADSVKGRFTISRDNAKNTVYLQMNSLKPEDTAFYYCAADDSRYYYEYDYWGQGTQVTVSS | high polyreactivity
5 | QVQLVESGGGLVQAGGSLRLSCAASGITFWKYTMGWYIHAPGKERELVASITWSGGSTYYADSVKGRFTISRDNAKNTVYLQMNSLKPEDTAVYYCNAEYLRIDLDYWGQGTQVTVSS | low polyreactivity
6 | QVHLVDSGGGLVQAGGSLRLSCAASGRTSIRYAMAWYRQAPGKERELVAAITYAAGSTYYADSVTGRFTISRDNAKNTVYLQMNSLKPEDTAVYYCNARVYYHYDFWGQGTQVTVSS | high polyreactivity
7 | QVQLVESGGGLVQAGGSLRLSCAASARIIYSNAMGWYRQAPGKERELVATISTGGSTYADSVKGRFTISRDNAKNTVYLQINSLKPEDTAVYYCAVDEWRWRVGAVAYYYWGQGTQVTVSS | low polyreactivity
8 | QVQLVESGGGLVQAGGSLRLSCAASGSTSRKYTMGWYRQAPGKERELVATISWSGGSTYYADSVKGRFTISRDNAKNTVYLQMNSLKPEDTAVYYCAAATKVRNLGSFESPGPEVDYWGQGTQVTVSS | high polyreactivity
9 | QVQLVESGGGLVQAGGSLRLSCAASGSTFQTYAMGWSRQAPGKERELVAAITWRGGSTYYADSVKGRFTISRDNAKNTVYLQMNSLKPDDTAVYYCAAKWNGSHDHRAAYESWGQGTQVTVSS | low polyreactivity
10 | QVQLVESGGGLVHAGGSLRLSCAASGFTFYKNAMGWYRQAPGKERELVAAISADGGRTYYADSVKGRFTISRDNAKNTVYLQMNSLKPEDTGVYYCNARARRYTRLRWYAYVSDNDYWGQGTQVTVSS | high polyreactivity
11 | QVQLVESGGGLVQAGGSLRLSCAASGIIFTYNTMGWYRQAPGKERELVAAINYSGGSTYYADSVKGRFTISRDNAKNTVYLQMNSLKPEDTAVYYCAAPYRRKARGFQQSFDYWGQVTQVTVSS | high polyreactivity
12 | QVQLVESGGGLVQAGGSLRLSCAASGFTFGNNGMGWYRQAPGKERELVATISWSGGSTYADSVKGRFTISRDNAKNTVDLQMNSLKPEDTAVYYCAARYFVYYLEVDYWGQGTQVTVSS | low polyreactivity
13 | QVQLVESGGGLVQAGGSLRLSCAASGSTFTTYGMGWYRQAPGKERELVAGITFRGGSTYYADSVKGRFTISRDNAKNTVYLQMNSLKPEDTAVYYCAAERWRWYYSWTMDYWGQGTQVTVSS | high polyreactivity
14 | QVQLVESGGGLVQAGGSLRLSCAASGIISTYYVMGWYRQAPGKERELVAAITGGGTYYADSVKGRFTISRDNAKNTVYLQMNSLKPEDTAVYYCAVDGTYAYGYSRDYDYWGQGTQVTVSS | low polyreactivity
15 | QVQLVESGGGLVQAGGSLRLSCAASGRTFTGNTMGWYRQAPGKERELVAAITKRGGSTYYADSVKGRFTISRDNAKNTVYLQMNSLKPEDTAVYYCAATSGVYRVGIIKYDYWGQGTQVTVSS | high polyreactivity
16 | QVQLVESGGGLVQAGGSLRLSCAASGRIFLYAMGWYRQAPGKERELVAAINRGGSTYYADSVKGRFTISRDNAKNTVYLEMNSLKPEDTAVYYCAAKRLTCRQHDYWGQGTQVTVSS | high polyreactivity
17 | QVQLVESGGGLVQAGGSLRLSCAASGFTFLNNTMGWYRQAPGKERELVAAITSSGDRTYYADSVKGRFTISRDNAKNTVYLQMNSLKPEDTAVYYCAADWAYYVASYLYYTFDYWGQGTQVTVSS | low polyreactivity
18 | QVQHVESGRGLVQAGGSLRLSCAASGRISYYYAMGWSRQAPGKEMELVAAITNVGGTYYADSVKGRFTISRDNAKNTVYLQMNSLKQEDTAVFYCAKDFPARHNYWYSSRFFDYWGQGTQGTVSS | low polyreactivity
19 | QVQLVESGGGLVQAGGSLRLSCAASGFTFVVNAMGWYRQAPGKERELVATIRSNGGSTYYADSVKGRFTISRDNAKNTVYLQMNSLKPEDTAVYYCAATATDTKYGYWGQGTQVTVSS | low polyreactivity
20 | QVQLVESGGGLVQAGGSLRLSCAASGFIFYRNTMGWYRQAPGKEREFVAAIRWRGGSSYYADSVKGRFTISRDNAKNTVYLQMNSLKPEDTAVYYCAADTRPGYSGFEYWGQGTQVTVSS | high polyreactivity
21 | QGQLVESGGGLVQAGGSLRLSCAASGITVGVYARGRYRQEPGKEREFVADIDRTGGSTYAVSVKGRFTISRDIAKNTVYLQMNSLKPEDTAVYYCAAGWGFRFYYWYWGQGTQVTVSS | high polyreactivity
